Biological target: insertion mutant recombinant human prion protein with five additional octapeptide repeats (human) (UniProt P04156)
Assay: AFM height measurement with a calibration curve of marker proteins

How did the stoichiometry N turn out when “insertion mutant recombinant human prion protein with five additional octapeptide repeats (from UniProt P04156 23-231) (natural protein)” was run?
Its stoichiometry N is 11 to 22 monomers.
